Our source for the Km values is article PMC9499114, “The Magnetosome Protein, Mms6 from Magnetospirillum magneticum Strain AMB-1, Is a Lipid-Activated Ferric Reductase” (International Journal of Molecular Sciences, 2022).

Substrate in data set [1]: Cc1cc2nc3c(=O)[nH]c(=O)nc-3n(C[C@H](O)[C@H](O)[C@H](O)COP(=O)(O)OP(=O)(O)OC[C@H]3O[C@@H](n4cnc5c(N)ncnc54)[C@H](O)[C@@H]3O)c2cc1C
Briefly: ferrozine A562 ferric reductase assay. As to conditions: stimulation of ferric reductase activity, co-substrates NADH and ferric citrate, pH 7.5, varied: cofactor. It counts as biochemical, Paramagnetospirillum magneticum.

Substrate in data set [2]: NC(=O)C1=CN([C@@H]2O[C@H](COP(=O)(O)OP(=O)(O)OC[C@H]3O[C@@H](n4cnc5c(N)ncnc54)[C@H](O)[C@@H]3O)[C@@H](O)[C@H]2O)C=CC1
Nature of the data set: ferrozine A562 ferric reductase assay. The following applies: stimulation of ferric reductase activity, electron donor, FAD and ferric citrate present, pH 7.5. In kind it is biochemical, Paramagnetospirillum magneticum.

B1: Mms6 (Paramagnetospirillum magneticum AMB-1) (protein)
chain: VGGTIWTGKGLGLGLGLGLGAWGPIILGVVGAGAVYAYMKSRDIESAQSDEEVELRDALA
notes: micelles of about 13-15 nm
What is called Km is the substrate concentration at which the rate is half of its maximum. On to B1, for which the Km is given as 25 µM in data set [1] and 15 µM in data set [2].
